In patent US8357518B2, “Thermostable enzymes for the hydrolysis of mannan-containing polysaccharides” (The Board of Trustees of the University of Illinois, priority 2010, dated 2013) one finds Km, kcat and kcat/Km data, which are given here for 3 proteins.

Common to all, as to type: biochemical, Caldanaerobius polysaccharolyticus
Substrate in data set [1]: O=[N+]([O-])c1ccc(O[C@@H]2O[C@H](CO)[C@@H](O)[C@H](O)[C@@H]2O)cc1
The data set is described as follows: Kinetic properties with pNP-linked sugars (Man5B wild type). The settings on record: other: wild type Man5B 5 nM, substrate 0.06 to 10 mM, 65° C., citrate buffer pH 5.5. How it is done:
(§1) The plasmid constructs were then introduced into E. coli BL-21 CodonPlus (DE3) RIL competent cells by heat shock, and grown overnight in lysogeny broth (LB) agar medium supplemented with ampicillin (100 μg/mL) and chloramphenicol (50 μg/mL) at 37° C. After 12 h, single colonies were selected and used to inoculate fresh LB (10 mL) supplemented with the antibiotics above at the same concentrations, followed by culturing with aeration for 8 h at 37° C. The pre-cultures were then inoculated into fresh LB (1 L) supplemented with ampicillin and chloramphenicol and the cultures were incubated at 37° C. with vigorous aeration (225 rpm/min). The cultures were grown to an optical density of 0.3 at 600 nm, and the temperature was shifted to 16° C. and gene expression was induced by the addition of 0.1 mM isopropyl β-D-thiogalactopyranoside (IPTG). After 16 h of growth, the cells were harvested by centrifugation (4000×g, […], 4° C.), the cell pellets were then re-suspended in 30 mL lysis buffer (50 mM Tris-HCl, 300 mM NaCl, pH 7.0), and ruptured by two passages through an EmulsiFlex C-3 cell homogenizer from Avestin (Ottawa, Canada). The cell lysate was then clarified by centrifugation at 20,000×g for 30 min at 4° C. to remove cell debris. The lysate containing recombinant protein was then incubated at 65° C. for 30 min, and centrifuged at 20,000×g for 15 min at 4° C. to remove heat labile E. coli proteins. The recombinant proteins were then purified from the heat treated supernatant using the Talon Metal Affinity Resin according to the supplier's protocol, with the exception that Tris-based binding (50 mM Tris-HCl, 300 mM NaCl, pH 7.5), and elution (50 mM Tris-HCl, 300 mM NaCl, 250 mM Imidazole, pH 7.5) buffers were employed. Aliquots of eluted fractions were analyzed by sodium dodecyl sulfate-polyacrylamide gel electrophoresis (SDS-PAGE) and protein bands were visualized by staining with Coomassie brilliant blue G-250. Elution fractions were pooled and the proteins were then exchanged into protein storage buffer (50 mM Tris-HCl, 150 mM NaCl, pH 7.5) by three successive concentration and dilution cycles with Amicon Ultra-15 centrifugal filter units (Man5A-TM1, Man5A-TM2, 50,000 MWCO; Man5B,10,000 MWCO). The UV absorbances of the protein solutions were recorded at 280 nm using a Nanoprop 1000 from Thermo Scientific (Waltham, Mass.) and the protein concentrations were calculated using the following extinction coefficients: Man5A-TM1, ε280 nm=189 mM^−1 cm^−1; Man5A-TM2, ε280 nm=113 mM^−1 cm^−1; Man5B, ε280 nm=103 mM^−1 cm^−1.
(§2) Determination of kinetic properties for wild type and mutant Man5B with pNP-linked sugars. Kinetic properties of wild type and mutant Man5B were determined for pNP-β-D-mannopyranoside and pNP-β-D-cellobioside. The substrate concentrations ranged from 0.06 to 10 mM and reactions were performed at 65° C. in citrate buffer (50 mM sodium citrate, pH 5.5). The reactions were equilibrated to 65° C. using a thermostated Cary 300 UV-Vis spectrophotometer, and the reactions were initiated by the addition of wild type (5 nM, final concentration) or mutant (2 μM, final concentration) Man5B. The rate of pNP release was determined by continuously monitoring the absorbance at 400 nm. Initial rate data were then plotted against the substrate concentrations, and the values of the Michaelis-Menten constant (KM) and the maximum velocity (Vmax) were estimated from a nonlinear curve fit using GraphPad Prism v5.01 from GraphPad Software (San Diego, Calif.). The kcat was calculated as the quotient of the Vmax and the concentration of enzyme used in the reaction.
(§3) Next, to test whether the mutations introduced in Man5B had any effects on the catalytic activity of this enzyme, the catalytic parameters for the wild type and mutant enzymes were determined using pNP-β-D-cellobioside and pNP-β-D-mannopyranoside as substrates.

Substrate in data set [2]: O=[N+]([O-])c1ccc(O[C@@H]2O[C@H](CO)[C@@H](O[C@@H]3O[C@H](CO)[C@@H](O)[C@H](O)[C@H]3O)[C@H](O)[C@H]2O)cc1
The data set is described as above. The following applies: other: wild type Man5B 5 nM, substrate 0.06 to 10 mM, 65° C., citrate buffer pH 5.5. The method, then: as §1, §2, §3

Substrate in data set [3]: O=[N+]([O-])c1ccc(O[C@@H]2O[C@H](CO)[C@@H](O)[C@H](O)[C@@H]2O)cc1
The data set is described as follows: Catalytic efficiency with pNP-linked sugars (Man5A-TM2). The following applies: other: Man5A-TM2, pNP substrates, citrate buffer 50 mM, pH 5.5, 65° C., triplicate. The method, then:
(§4) The plasmid constructs were then introduced into E. coli BL-21 CodonPlus (DE3) RIL competent cells by heat shock, and grown overnight in lysogeny broth (LB) agar medium supplemented with ampicillin (100 μg/mL) and chloramphenicol (50 μg/mL) at 37° C. After 12 h, single colonies were selected and used to inoculate fresh LB (10 mL) supplemented with the antibiotics above at the same concentrations, followed by culturing with aeration for 8 h at 37° C. The pre-cultures were then inoculated into fresh LB (1 L) supplemented with ampicillin and chloramphenicol and the cultures were incubated at 37° C. with vigorous aeration (225 rpm/min). […] Aliquots of eluted fractions were analyzed by sodium dodecyl sulfate-polyacrylamide gel electrophoresis (SDS-PAGE) and protein bands were visualized by staining with Coomassie brilliant blue G-250. […] The UV absorbances of the protein solutions were recorded at 280 nm using a Nanoprop 1000 from Thermo Scientific (Waltham, Mass.) and the protein concentrations were calculated using the following extinction coefficients: Man5A-TM1, ε280 nm=189 mM^−1 cm^−1; Man5A-TM2, ε280 nm=113 mM^−1 cm^−1; Man5B, ε280 nm=103 mM^−1 cm^−1.
(§5) Hydrolysis of para-nitrophenyl (pNP) linked sugars. […] The extinction coefficient of pNP at pH 5.5 was determined as 1636 M^−1 cm^−1.

Substrate in data set [4]: O=[N+]([O-])c1ccc(O[C@@H]2O[C@H](CO)[C@@H](O[C@@H]3O[C@H](CO)[C@@H](O)[C@H](O)[C@H]3O)[C@H](O)[C@H]2O)cc1
Described as above. The settings on record: other: Man5A-TM2, pNP substrates, citrate buffer 50 mM, pH 5.5, 65° C., triplicate. The method, then:
as §4, §5

Substrate in data set [5]: O=[N+]([O-])c1ccc(O[C@@H]2O[C@H](CO)[C@@H](O)[C@H](O)[C@@H]2O)cc1
The data set is described as follows: Catalytic efficiency with pNP-linked sugars (Man5A-TM1). The settings on record: other: Man5A-TM1, pNP substrates, citrate buffer 50 mM, pH 5.5, 65° C., triplicate. How it is done:
as §4, §5

B1: Caldanaerobius polysaccharolyticus endo-β-mannanase Man5B, wild type, SEQ ID NO: 31 (Caldanaerobius polysaccharolyticus) (protein)
chain: MKKYGFNFQWMYVWEEGREPEPPDKKALDFLAETGFNFVRIPVDYRFWTRNFDYFNPDKKVFEYIDLYLRECSARNIHMCLNLHRAPGYCINRNDIERDNLWLDKRAQDGFVYQWELFAKRYKGVSSKFLSFDLVNEPPNIGQYGLTRENHASLIIRTVEAIRKIDPDREIVIDGLGGGNIAMPELAHLGVVHSGRGYQPMALTHYQASWWDGHKGLPEPYYPDLLWQGKVWNKDTLREYYKPWRDLQQKGVNVHIGEFGCFNKTSNDVAIRWFEDVLSLYKEFEWGYSLWNFKGPFGIVEHGRPGAKYEYYRGFKVDRELLDLLVENRV
In general, Km refers to the substrate concentration at which the rate is half of its maximum. One may read the kcat as the maximal rate divided by the concentration of active sites. As usually defined, the kcat/Km is the turnover number divided by the Michaelis constant. For B1, in data set [1], the Km is 26 ± 4 mM, the kcat amounted to 42 ± 3 s⁻¹ and the catalytic efficiency (kcat/Km) was found to be 1600 ± 100 M⁻¹ s⁻¹. For the same protein, in data set [2], the Km entry is given as “(9.7 ± 1) × 10^−2 mM”, the kcat is 2.4 ± 0.1 s⁻¹ and the specificity constant (kcat/Km) stood at 25000 ± 2000 M⁻¹ s⁻¹.

B2: Caldanaerobius polysaccharolyticus endo-β-mannanase Man5A truncation mutant Man5A-TM2, SEQ ID NO: 29 (Caldanaerobius polysaccharolyticus) (protein)
chain: AGTSGDGRFHVVGNKIVDPDGKDFIIKGVNIQGYRSWEKRSVLQDVHLIADVWKFNTVRLNCFIGQNNWGEGTGANNDIDAIIKAFTAKKVVVEIDLHDTTGYPPLSNPPPAPGQPSLDQAIAWFKELAAKYKDNPYVWFNTMNEPGSSTAPLDPQWKVANEEIIKAIRSTGADNIIVVDGWSYANEGIEQNTPTVDEKRSAVLTYGQDLLNADSAKNTIFAFHNYNEGDIQKKVEDYIDRANAKGLYVFMEEYGKDYSDAAKEGVKSGLQAVMNKGAGRIYWNWDGYDLYDLTSGTGRGSGWEINKTDGSKPTNLSWVGDKIWDDNHGITPTFDDQNPKVDLALERLIANNNGFKAGDKVQFTTFLRNSGDLPIGKDSKVVVKFYVDGVQLGDPVEISGGIAVGQRIPVTSPELTVSKTDFTVKAVIDSSSTYADGAEDAVIENNWIEAAFNSTAPSSGYELVVTGIKITPDTVKEGDYVQAQVTVANQGPEATPVTNIIGWFYVNGYYYTLDDAAKSCAEQDNVTLKPGESITLSTKVKYRAAAPFNFSFVLENLYADDQNQSNNSITVNVPVK
For the protein B2, the kcat/Km result is reported as “(1.1 ± 0.2) × 10^−2 mM^−1 s^−1” in data set [3] and “(2.5 ± 0.3) × 10^−2 mM^−1 s^−1” in data set [4].

B3: Caldanaerobius polysaccharolyticus endo-β-mannanase Man5A truncation mutant Man5A-TM1, SEQ ID NO: 28 (Caldanaerobius polysaccharolyticus) (protein)
chain: AGTSGDGRFHVVGNKIVDPDGKDFIIKGVNIQGYRSWEKRSVLQDVHLIADVWKFNTVRLNCFIGQNNWGEGTGANNDIDAIIKAFTAKKVVVEIDLHDTTGYPPLSNPPPAPGQPSLDQAIAWFKELAAKYKDNPYVWFNTMNEPGSSTAPLDPQWKVANEEIIKAIRSTGADNIIVVDGWSYANEGIEQNTPTVDEKRSAVLTYGQDLLNADSAKNTIFAFHNYNEGDIQKKVEDYIDRANAKGLYVFMEEYGKDYSDAAKEGVKSGLQAVMNKGAGRIYWNWDGYDLYDLTSGTGRGSGWEINKTDGSKPTNLSWVGDKIWDDNHGITPTFDDQNPKVDLALERLIANNNGFKAGDKVQFTTFLRNSGDLPIGKDSKVVVKFYVDGVQLGDPVEISGGIAVGQRIPVTSPELTVSKTDFTVKAVIDSSSTYADGAEDAVIENNWIEAAFNSTAPSSGYELVVTGIKITPDTVKEGDYVQAQVTVANQGPEATPVTNIIGWFYVNGYYYTLDDAAKSCAEQDNVTLKPGESITLSTKVKYRAAAPFNFSFVLENLYADDQNQSNNSITVNVPVKMGEGGVNMVSNPGFEDGLDSWQDWQQDMSAVPEAAHNGALGLKIGGGKAAGGGQDIPLKPNTTYILGAWAKFDSKPAGTFDVVVQYHLKDANNTYVQHILNFNETDWTYKQLLFTTPDVFGSTPQLALWKGDTSKANLYVDDVYLVEVSNLIVNGTAENGMDGWPDWGYPVSAVPEAAYGGTKGFKLSGGKQAGMGQKVALKPNTTYILGAWGKFTAKPGTYCDVIVQYHLKDANNTYVQNILRFTETDWTYKQVVFTTPDAFGSDPEFVLWKDDASNADFYADNITLVEV
B3: the kcat/Km entry in data set [5] is reported as “(1.4 ± 0.3) × 10^−2 mM^−1 s^−1”.
